Our source for the stoichiometry N values is paper PMC8571082.

The target in test [1] is T1, factor inhibiting HIF-1 (FIH-1), full-length (human), Q9NWT6. As to the kind of experiment: SEC; FIH-1 alone, wild type at ~7 μM; profiles of FIH-1 WT and L340R. To be noted: remark: other sources report otherwise. A general note: SEC sorts molecules by how far they enter the pores of the column.
In test [2] the target is T1, factor inhibiting HIF-1 (FIH-1), …. Nature of the test: SEC-MALS; FIH-1 alone at 70 μM, 50 μl on Superdex 200 10/300 GL; 35 mM Na-phosphate pH 7.5, 300 mM NaCl, 500 μM αKG. Particulars: remark: other sources report otherwise.

B1: factor inhibiting HIF-1 (FIH-1), full-length, Q9NWT6 1-349 (enzyme)
chain: MAATAAEAVASGSGEPREEAGALGPAWDESQLRSYSFPTRPIPRLSQSDPRAEELIENEEPVVLTDTNLVYPALKWDLEYLQENIGNGDFSVYSASTHKFLYYDEKKMANFQNFKPRSNREEMKFHEFVEKLQDIQQRGGEERLYLQQTLNDTVGRKIVMDFLGFNWNWINKQQGKRGWGQLTSNLLLIGMEGNVTPAHYDEQQNFFAQIKGYKRCILFPPDQFECLYPYPVHHPCDRQSQVDFDNPDYERFPNFQNVVGYETVVGPGDVLYIPMYWWHHIESLLNGGITITVNFWYKGAPTPKRIEYPLKAHQKVAIMRNIEKMLGEALGNPQEVGPLLNTMIKGRYN
On to B1, for which the stoichiometry N in test [1] and in test [2] was 2 each time.

In general, stoichiometry N refers to a count of units in the complex or per binding partner.
